Data as given in a protein production outcome set (Wang et al. 2014).

Assay: label from the status in PepcDB records
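Note: failed if final PepcDB status was selected cloned or expressed and not failed if soluble or beyond.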

Protein production, failed:
MLNIQNYSASPHPGIVAERPQTPSASEHAEIAVVPSTTEHRGTDIISLSQAATKIQQAQQTLQSTPPISEENNDERTLARQQLTSSLNALAKSGVSLSAEQNENLRSTFSAPTSALFSASPMAQPRTTISDAEIWDMVSQNISAIGDSYLGVYENVVAVYTDFYQAFSDILSKMGGWLSPGKDGNTIKLNVDSLKSEISSLINKYTQINKNTILFPSQTGSGMTTATKAEAEQWIKELNLPDSCLKASGSGYVVLVDTGPLSKMVSDLNGIGSGSALELDNAKYQAWQSGFKAQEENLKTTLQTLTQKYSNANSLYDNLVKVLSSTISSSLETAKSFLQG
MLNMSFAPTSLTVSQMSGTRTIRPLTAATLCGIAFIQDRLIAIDSIKGHLLEIDPKTDNSKILNPHQAKEFTDVTGLAVWEDNLWVTRGNSVYVSKLSSLGLEHFVTLPYSADGVAVWESTVYVSCHRLGYILIFDRDTRKEITRFYAPGVGVENLVVNGNTLWVCDRTEQTVYSMDRATGEVIFSVLTPFESPTGIAVHLDAETGKENLYVAYASEEPYIRDNPNADPNHELTYRDRTFIHPLYYHHQPDKHYALSNGYLIEMSYAEEISPLEEVYIPEVEWRIALPSETERQKIRHIEPIGIPFTEEVIDGQRVALFKFDALVPGERHIFGWKALLEVRGIKYRITPKEVENIPELSPEFQERYLVDDDDLAMDTSIVRRAAEEAVGSETNLLRKMYSIRNYVYDELSYGIKPYIDTPDIVLERGIGSCGEYVGVLLALCRLNGIPCRTVGRYKCPPQAEQQGVPLQPDFNHVWLEFYIPGFGWLPMESNPDDLGRGSQYPTRFFMGLCWYHIEIGKGVSFETISSQGKRLTKDDIPIGDLAINHIRFTIVKELPDF
MLNPVSQLSQAIRENTEHLAEKMKILFQNTGRAWEDLEARINAENEVPILKTSNKEISSILKELRRVQKQLEVINAIVDPSGSLDLLTGNRSLASSAQPGLGKGRVAAQSPPSPASAEALLPALPLRNFPQRASCGPPSLPDPTFLPDAERFLI
MLNVIHALFFRELKTRFGKNRYLGYIWVVGEPMSVVLLVTIIGTVIREYHHQVMPEGISIFMFLISGIMPFFMFRSIVTQLMNGIGANLSLFAYKPVKPIHVFIARTLLEFCIYFVIFITVLFFAGWFFRLDVFPVHLLGVLFCIFLLICSAFALGICFAIVWHFVESLRTLLAYFSIVFYWSSGIIFPTWLTPRPLLDIFYYNPLLHIFELLRFNFFENYPLQDEYSYFYAIFWILLVLFIGLFIYYYNRQALTAAKKE
MLPARLPFRLLSLFLRGSAPTAARHGLREPLLERRCAAASSFQHSSSLGRELPYDPVDTEGFGEGGDMQERFLFPEYILDPEPQPTREKQLQELQQQQEEEERQRQQRREERRQQNLRARSREHPVVGHPDPALPPSGVNCSGCGAELHCQDAGVPGYLPREKFLRTAEADGGLARTVCQRCWLLSHHRRALRLQVSREQYLELVSAALRRPGPSLVLYMVDLLDLPDALLPDLPALVGPKQLIVLGNKVDLLPQDAPGYRQRLRERLWEDCARAGLLLAPGHQGPQRPVKDEPQDGENPNPPNWSRTVVRDVRLISAKTGYGVEELISALQRSWRYRGDVYLVGATNAGKSTLFNTLLESDYCTAKGSEAIDRATISPWPGTTLNLLKFPICNPTPYRMFKRHQRLKKDSTQAEEDLSEQEQNQLNVLKKHGYVVGRVGRTFLYSEEQKDNIPFEFDADSLAFDMENDPVMGTHKSTKQVELTAQDVKDAHWFYDTPGITKENCILNLLTEKEVNIVLPTQSIVPRTFVLKPGMVLFLGAIGRIDFLQGNQSAWFTVVASNILPVHITSLDRADALYQKHAGHTLLQIPMGGKERMAGFPPLVAEDIMLKEGLGASEAVADIKFSSAGWVSVTPNFKDRLHLRGYTPEGTVLTVRPPLLPYIVNIKGQRIKKSVAYKTKKPPSLMYNVRKKKGKINV
MLPGLKYIDRIGVDDVLVWLRKGIVWIVLAIVLCVGGALTYASMTPPRYKAYTDIVVNPSNLNVVNDGVFSPNQQRDTQILEVESKLRTITSRNVLARVVDELKLDQDPEFVSPPPLARLKAMFSSKPDDGDNRVGALRSLGDRVTAERDPRSFVVTLSVWTNDAEKSVAVSKAIVKAFESELFQTNSDSSQRVVDDLKKRLEEMRENVTIAEKRVADFRRENGLQENNGQLVSNLASGELNAQVLATQQRLIQEESRLKQMEAAIAQNRTQSDAIFDSQTMNTIRAQYSTLQQQIGAMTLTYGARHPRLATAGAERAMLERGMADEARRILQAAKINVAEARSSLDALRLKAVAERANVFTDNDAQVRLRDLDRDARSAAAIYETYLTRSRQLAEQQSIDSTNVRVISQPVAPNSRSWPPGKLTFLIAGGMGGLFLGLAIAVALGLWGYLRRDDHAEAAARYA
MLPHYKQQAVIDSGLAAVGFRPENQRIYPNGSLAAHILGAVDIDNFGIAGIEKWIDANWLADLRGAGLALKGRDLQPVELSIDLRVQYAMEQELGKAVKKFGAAAGAGLLLDVTNGEILALASYPAFDPNNPVDAFKPDRINRVTAGVFEMGSTFKALTTAMALESGRFDLESVVDASRPLSFGRQRIHDYRGKYRPLTVPEAFIHSSNIVMAKMAMTLGPEALRTFLGRFGVLSQLATELPESAAPLRPSSWSEVTTATVSFGHGIAVTPLQASMAVAALANGGRLIRPTFIKDSPVSERTIAESLLSANTSEAIRHLLRLNAAVGSATKADVPGYVIGGKTGTAEKVVQGRYSKVLNVTSFMGIVPADNPRYLLLTLLDEPRGLAETYGNRTSGWNAVPLGGALLHRILPMLLKPVFPSPSSAEAVPVATGEPSVDDSSSD
MLPIAPCARQAVHRQCGGMQNSAAARKLHAVLPRTLDTARIARRSSMFLRRNGLSLCLLALTIFFIGCQVYAGLHAYNDELREQGQPTLLLSAYLHSPHFMSALFENWESEFLQMGMYVLLTVKLRQVGSAESRPLDPTEETVEIKSGPTPWPVRAGGVWRRLYDHSLAIAFAALFLMSFALHLVGSWRLEVTERAQKGLPPITVLEHFTSASFWFESMQNWQSEFLAVFSLVVLTIWLRQKDSPQSKPVEAPHSQTGG
MLPIWFLIVIILKSVEFVITSFFLRDISKEMIFFSDLLGRIIVIIFYVLPIATYISVMFSQFLYLFIIHIFLYIICFMAFVSSALRIKRCIH
MLPVSTSVQRSTRQQKITYLYNRNEQSNKKAVTMKTTTTETSIPEEKTTSARIQAYSKSQLAALYLPHIQPASARRTLRSWIAKNTELQAALARSGYTGKAILLTPAQVGLFFRFLGEP
MLPWNFEGEASEPAQDPTMAPHKRQSYEEELANAITHGVGLVLSLIGWVGLLVLSGLAGGGWDLAASAVFGGTLVFLYATSTLYHSVGTARLKRTLRILDHVAIFLLIAGTYTPFAGVLMREGWGWSVLALVWGIALAGLLFKLFSTHRFHPAATTLYLLMGWLGVLFADPMSAALPLGGLLLIVAGGLAYTIGVLFYGWHSLRYSHAIWHVFVLVGSACHYAAVVLYVL
MLQIADYIAENYRGKVVEVGIGRFTAVAELLARRGFEVFATDVVERRAPEGCRFYVDDVTKPNLKIYEGASLIYSLRPPPELFSAIVEVSRKVGADCLIKPLYGDYMEARIVNYKGAQFYLIRRENYD
MLQPGGTPTKIVCLTQVVTADDLRDDAEYADIMEDMSQEGGKFGNLVNVVIPRPNPDHDPTPGVGKVFLEYADVDGSSKARSGMNGRKFGGNQVVAVYYPEDKYAQGDYED
MLQRFYETLSTLRARWTRFTESPMGAWVRTGLRWLFVGGIVAYLAYELTTIGWGEVARALPVTPWFYVLLLLMYGTLPLTEAVLYGTAWGAQYRDLLPVLFRKRVLNNDVLGYSGEAYFYLWARRETNLGTGTVLRTVKDNVVISSVASTSVAFGLLAVFFLTGQIELLRQYLPSEAYTLGAGVAVLIILVSAVVAFRRSILSLPSSLLGLFAAGHVARFVLNNGLQVTQWAVVIPEVSAGTWITLLALYIVIQQVPFVPSRGLVFMSAGVGLSGPLQIPEAPLASMLLAQSLLDRGLNFLVYTGTTAAEAVGDDVEELDDLSIPEEMG
MLREPGAADRAAFVELLASPEVHTYLGGPRPRAELERELPGTPERWPGSFVVDLDGEMIGQVLLRRTREHCCPVAVGKVDLGYLFLPRAWGLGYAAEACAAALDWLDCVLPGEPVVLNTQTANTGSMRLAAKLGFTEVERFRAWDAEQWLGLRPPLT
